The text below walks through data of article doi:10.1101/2024.08.23.608890 (bioRxiv, 2024).

The target in this test is T1, Paeniclostridium sordellii lethal toxin TcsL, receptor binding domain (RBD) (Paeniclostridium sordellii, UniProt Q46342).
T1 sequence: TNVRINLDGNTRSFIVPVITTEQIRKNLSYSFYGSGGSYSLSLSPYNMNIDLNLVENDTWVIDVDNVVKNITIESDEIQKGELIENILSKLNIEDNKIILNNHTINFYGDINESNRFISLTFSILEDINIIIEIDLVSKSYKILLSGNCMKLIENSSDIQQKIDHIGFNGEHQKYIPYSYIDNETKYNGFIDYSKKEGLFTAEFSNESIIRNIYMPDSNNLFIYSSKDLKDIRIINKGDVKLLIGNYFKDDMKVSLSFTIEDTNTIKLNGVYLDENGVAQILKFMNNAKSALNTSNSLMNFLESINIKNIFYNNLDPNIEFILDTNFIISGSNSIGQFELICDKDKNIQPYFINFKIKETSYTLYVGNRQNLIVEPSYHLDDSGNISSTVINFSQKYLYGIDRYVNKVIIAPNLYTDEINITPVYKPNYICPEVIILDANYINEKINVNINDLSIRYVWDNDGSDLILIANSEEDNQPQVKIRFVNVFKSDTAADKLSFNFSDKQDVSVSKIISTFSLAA
The test is described as follows: SPR. Background: SPR reads the build-up and loss of mass on a sensor chip optically.

B1: B4, ProteinMPNN-optimized de novo designed TcsL-binding miniprotein (designed binder)
chain: MSGTEEIIKEIKKMKEKGEKASSIIDLLKKAGYSEIAKKAELAALKSENMTEAAAEKAIEELK
Broadly, the Kd is the equilibrium constant for the complex coming apart. Lower therefore signals a tighter complex. For B1, the dissociation constant (Kd) amounted to 0.057 nM.
